The target in experiment [1] is T1, recombinant rat NRP-1 protein (rat, UniProt Q9QWJ9 22-855).
T1 sequence (looked up): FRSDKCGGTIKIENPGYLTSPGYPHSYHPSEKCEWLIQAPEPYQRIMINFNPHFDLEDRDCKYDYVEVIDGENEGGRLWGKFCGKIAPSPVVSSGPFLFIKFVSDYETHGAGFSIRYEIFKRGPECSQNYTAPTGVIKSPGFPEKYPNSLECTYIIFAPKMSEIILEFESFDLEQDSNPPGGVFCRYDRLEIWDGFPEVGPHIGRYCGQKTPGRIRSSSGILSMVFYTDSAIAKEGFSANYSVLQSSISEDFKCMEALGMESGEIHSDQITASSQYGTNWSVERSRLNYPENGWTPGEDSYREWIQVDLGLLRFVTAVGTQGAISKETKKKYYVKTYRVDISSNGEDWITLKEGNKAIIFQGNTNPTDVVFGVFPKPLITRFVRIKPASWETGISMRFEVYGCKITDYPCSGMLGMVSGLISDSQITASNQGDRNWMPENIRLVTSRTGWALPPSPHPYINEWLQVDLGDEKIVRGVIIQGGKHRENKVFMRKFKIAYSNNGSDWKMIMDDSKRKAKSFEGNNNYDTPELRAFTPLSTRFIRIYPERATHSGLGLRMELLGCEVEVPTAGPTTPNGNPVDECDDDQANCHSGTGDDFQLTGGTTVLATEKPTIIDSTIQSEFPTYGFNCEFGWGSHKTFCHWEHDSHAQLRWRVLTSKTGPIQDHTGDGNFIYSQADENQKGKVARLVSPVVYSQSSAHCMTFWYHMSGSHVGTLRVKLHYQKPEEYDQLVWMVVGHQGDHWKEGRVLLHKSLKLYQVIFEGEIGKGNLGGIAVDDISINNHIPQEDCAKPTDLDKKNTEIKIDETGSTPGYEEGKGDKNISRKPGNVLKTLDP
Briefly: SPR. For orientation: SPR reads the build-up and loss of mass on a sensor chip optically.

The target in experiment [2] is T2, recombinant human NRP-1 protein (human, UniProt O14786 22-856).
T2 sequence (looked up): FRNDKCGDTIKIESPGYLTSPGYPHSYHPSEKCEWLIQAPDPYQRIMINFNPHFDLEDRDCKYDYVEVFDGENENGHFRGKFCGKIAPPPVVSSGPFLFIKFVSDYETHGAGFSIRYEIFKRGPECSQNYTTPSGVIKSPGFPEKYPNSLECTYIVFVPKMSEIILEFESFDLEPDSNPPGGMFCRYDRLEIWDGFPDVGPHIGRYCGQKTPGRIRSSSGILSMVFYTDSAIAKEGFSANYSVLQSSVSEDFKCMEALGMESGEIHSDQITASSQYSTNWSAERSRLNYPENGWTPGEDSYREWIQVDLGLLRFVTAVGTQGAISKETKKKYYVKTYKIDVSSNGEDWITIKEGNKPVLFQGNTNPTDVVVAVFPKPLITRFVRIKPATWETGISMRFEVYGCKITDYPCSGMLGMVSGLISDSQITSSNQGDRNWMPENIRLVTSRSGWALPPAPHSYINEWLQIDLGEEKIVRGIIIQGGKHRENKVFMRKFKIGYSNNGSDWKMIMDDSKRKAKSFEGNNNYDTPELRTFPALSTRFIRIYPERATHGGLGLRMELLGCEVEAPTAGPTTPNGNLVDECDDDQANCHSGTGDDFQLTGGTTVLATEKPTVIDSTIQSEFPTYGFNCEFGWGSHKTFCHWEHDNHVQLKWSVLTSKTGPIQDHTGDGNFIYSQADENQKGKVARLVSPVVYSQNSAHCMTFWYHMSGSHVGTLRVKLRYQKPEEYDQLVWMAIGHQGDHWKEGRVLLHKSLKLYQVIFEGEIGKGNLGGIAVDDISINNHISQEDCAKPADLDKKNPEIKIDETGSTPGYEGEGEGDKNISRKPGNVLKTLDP
Briefly: SPR.

Broadly, the Kd is the free concentration of one partner at which half of the binding sites on the other are occupied at equilibrium, for simple one-to-one binding.

As to KDKPPR [KDKPPR peptide], the equilibrium dissociation constant (Kd) in experiment [1] was 8.7 µM; in experiment [2] it was 0.5 µM.

The values above are taken from PMC7673487 (International Journal of Nanomedicine, 2020).
